Measurements from publication PMC11098500 (PLOS Pathogens, 2024).

Target: SARS-CoV-2 RBD (residues 319-529), His-tagged (SARS-CoV-2 (prototypic strain), UniProt P0DTC2 319-529)
Assay: SPR
Settings: both partners purified

B1: raccoon dog ACE2 ectodomain (residues 1-614), Fc-tagged (Fc fusion)
chain: QSTEDLVNTFLEKFNYEAEELSYQSSLASWNYNTNITDENLQKMNNAGAKWSAFYEEQSKLAKTYPLEEIQDSTVKRQLRALQHSGSSVLSADKNQRLNTILNSMSTIYSTGKACNPSNPQECLLLEPGLDDIMENSKDYNERLWAWEGWRSEVGKQLRPLYEEYVALKNEMARANNYEDYGDYWRGDYEEEWENGYNYSRNQLIDDVEHTFTQIMPLYQHLHAYVRTKLMDTYPSYISPTGCLPAHLLGDMWGRFWTNLYPLTVPFGQKPNIDVTNAMVNQSWDARKIFKEAEKFFVSVGLPNMTQGFWENSMLTEPSDSWKVVCHPTAWDLGRGDFRIKMCTKVTMDDFLTAHHEMGHIQYDMAYAAQPFLLRNGANEGFHEAVGEIMSLSAATPNHLKNIGLLPPSFFEDSETEINFLLKQALTIVGTLPFTYMLEKWRWMVFKGEIPKDQWMKTWWEMKRNIVGVVEPVPHDETYCDPASLFHVANDYSFIRYYTRTIYQFQFQEALCQIAKHEGPLHKCDISNSSEAGQKLLEMLKLGKSKPWTYALEIVVGAKNMDVRPLLNYFEPLFTWLKEQNRNSFVGWNTDWSPYAD
- Kd: 399 nM
